Data reported in US20080170994A1 (ARMAGEN TECHNOLOGIES, published 2008).
Blank lines part the entries; values can stand above or below the binder they belong to.

Experiments:
[1] = target: T1, human insulin receptor (HIR) extracellular domain (ECD) (human, UniProt P06213 28-956, limits assumed); test: ELISA on affinity purified HIR ECD
T1 construct: extracellular domain; Solid phase antigen of the HIR ELISA; also called HIR ECD; purified human insulin receptor
Description: The affinity of the fusion antibody for binding to the human insulin receptor (HIR) extracellular domain (ECD) was measured with an ELISA using affinity purified HIR ECD obtained from medium conditioned by CHO cells permanently transfected with the HIR ECD gene. […] The 50% saturation of binding, ED₅₀, is 0.53±0.02 nM for the chimeric HIRMAb. The ED₅₀ of fusion antibody binding to the HIR is 1.0±0.1 nM (FIG. 35). […] The HIR at the BBB is an heterotetrameric molecule comprised of two alpha and two beta chains. […] There is specific binding of the [¹²⁵I]-fusion antibody to human brain capillaries in a time-dependent process, whereas binding of the [¹²⁵I]-mouse anti-Aβ antibody is constant with time, and is non-specific (FIG. 36B).

Aβ^1-40 amyloid peptide [2] = target: T2, Aβ^1-40 amyloid peptide (human, UniProt P05067 672-711); test: IRMA: competition with [125I]-murine anti-Aβ MAb on plated Aβ^1-40
T2 construct: domain: Aβ^1-40; Plated on 96-well plates in the ELISA and the IRMA; also called Aβ^1-40 peptide; 40 amino acid Aβ amyloid peptide of AD
Description: (§1) FIG. 34. Aβ¹⁻⁴⁰ immunoradiometric assay (IRMA) measures the binding of the [¹²⁵I]-murine anti-Aβ MAb to Aβ¹⁻⁴⁰ that is plated in wells of a 96-well plate. The murine anti-Aβ MAb is the original murine MAb against Aβ purified from hybridoma conditioned medium. In the absence of competitors of binding, approximately 20% of the total [¹²⁵I]-anti-Aβ MAb is bound to the Aβ¹⁻⁴⁰. […] The affinity of the fusion antibody for Aβ¹⁻⁴⁰ is equal to the affinity of the original murine anti-Aβ¹⁻⁴⁰ MAb
(§2) The affinity of the fusion antibody for binding to Aβ¹⁻⁴⁰ was compared to the same affinity of the murine hybridoma generated anti-Aβ MAb with an immunoradiometric assay (IMRA). In this assay, the Aβ¹⁻⁴⁰ is plated in 96-well plates, and the binding of [¹²⁵I]-murine anti-Aβ MAb to the […] is measured. […] Therefore, the affinity of the fusion antibody for Aβ¹⁻⁴⁰ is identical to that of the original 150 kDa hetero-tetrameric murine anti-Aβ MAb. This was a surprising finding, since the affinity of a ScFv for the target antigen is generally much lower than for the full, tetrameric MAb molecule. Owing to the bivalency of the tetrameric MAb, the affinity for the antigen is higher than the affinity of the monomeric ScFv. The high affinity of the ScFv moiety of the fusion antibody for Aβ¹⁻⁴⁰ is attributed to the design of the fusion antibody molecule, which places the ScFv in a dimeric or bivalent conformation (FIG. 26).

[3] = target: BBB insulin receptor of the Rhesus monkey (Rhesus monkey, UniProt Q28516 1-210); test: cell-based or functional assay
Aβ^1-40 amyloid peptide [4] = target: T2, Aβ^1-40 amyloid peptide; test: IRMA on plated Aβ^1-40
Aβ^1-40 amyloid peptide [5] = target: T2, Aβ^1-40 amyloid peptide; test: IRMA: [125I]-murine anti-Aβ MAb on plated Aβ^1-40, unlabelled antibody as competitor
Description: as §1
as §2, with “The high affinity of the ScFv moiety of the fusion antibody for Aβ¹⁻⁴⁰ is attributed to the design of the fusion antibody molecule, which places the ScFv in a dimeric or bivalent conformation (FIG. 26).” left out

EC50 [1]: 1 nM | Kd (Aβ^1-40 amyloid peptide [2]): 24 nM | brain volume of distribution (VD) in Rhesus monkey at 3 hours after intravenous injection [3]: > 10 fold
B1: anti-Aβ ScFv/chimeric HIRMAb fusion antibody (bispecific antibody, human IgG1, kappa)
heavy: not shown
light: DIQMTQSPSSLSASLGERVSLTCRASQDIGGNLYWLQQGPDGTIKRLIYATSSLDSGVPKRFSGSRSGSDYSLTISSLESEDFVDYYCLQYSSSPWTFGGGTKMEIKRTVAAPSVFIFPPSDEQLKSGTASVVCLLNNFYPREAKVQWKVDNALQSGNSQESVTEQDSKDSTYSLSSTLTLSKADYEKHKVYACEVTHQGLSSPVTKSFNRGEC
notes: also called fusion protein; HIRMAb-mAβScFv

fold decrease of affinity against the Asn-497 fusion antibody (Aβ^1-40 amyloid peptide [4]): ~6 fold | Ki (Aβ^1-40 amyloid peptide [2]): 182 nM
B2: Ala-497 form of the antibody fusion protein (N497A) (bispecific antibody, human IgG1, kappa)
heavy: not shown
light: B1 light
notes: also called fusion antibody with the N497A mutation

fold decrease of affinity against the Ser-499 fusion antibody (Aβ^1-40 amyloid peptide [4]): 8 fold | Ki (Aβ^1-40 amyloid peptide [2]): 271 nM
B3: Ala-499 form of the antibody fusion protein (S499A) (bispecific antibody, human IgG1, kappa)
heavy: not shown
light: B1 light
notes: also called fusion antibody with the S499A mutation

EC50 [1]: 0.53 nM
B4: chimeric HIRMAb (chimeric monoclonal antibody to the human insulin receptor) (antibody, human IgG1, kappa, V domains shown)
VH: QVQLQQSGPELVKPGALVKISCKASGYTFTNYDIHWVKQRPGQGLEWIGWIYPGDGSTKYNEKFKGKATLTADKSSSTAYMHLSSLTSEKSAVYFCAREWAYWGQGTLVTVSA
VL: DIQMTQSPSSLSASLGERVSLTCRASQDIGGNLYWLQQGPDGTIKRLIYATSSLDSGVPKRFSGSRSGSDYSLTISSLESEDFVDYYCLQYSSSPWTFGGGTKMEIKR

Kd (Aβ^1-40 amyloid peptide [5]): 32 nM
B5: murine anti-Aβ MAb (hybridoma generated) (antibody, V domains shown)
VH: QVQLQQSGAELVKPGATVKLSCKASGYSFNSHYIYWVKQRPGQGLEWIGEINPSNGAMNFNEKFKNKATLTVDKSSSTAYMQLSSLTSEDSAVYYCVRDPTSYWGQGTLVTVSA
VL: DVVMTQTPLSLPVSLGDQASISCRSSQSLVHSYGNTYLHWYLQKPGQSPKLLIYKVSNRFSGVPDRFSGSGSGTDFTLKISRVEAEDLGVYFCSQSTHVPYTFGGGTKLEIKR
notes: 150 kDa hetero-tetrameric mouse IgG (gamma heavy chain, kappa light chain) purified from hybridoma medium; also called mouse anti-Aβ MAb; mouse anti-Aβ antibody
